Assay results reported in US20150361165A1 (SYDDANSK UNIVERSITET, published 2015).

Tests used:
[1] = biological target: T1, mouse MFAP4 in tissue (mouse aorta) (mouse, UniProt Q9D1H9 23-257); experiment: immunohistochemistry on mouse aorta; no signal in mfap4-/- tissue
T1 construct: Native protein detected by immunohistochemistry; signal absent in mfap4-/- tissue; also called mouse MFAP4 homologue
T1 sequence (looked up): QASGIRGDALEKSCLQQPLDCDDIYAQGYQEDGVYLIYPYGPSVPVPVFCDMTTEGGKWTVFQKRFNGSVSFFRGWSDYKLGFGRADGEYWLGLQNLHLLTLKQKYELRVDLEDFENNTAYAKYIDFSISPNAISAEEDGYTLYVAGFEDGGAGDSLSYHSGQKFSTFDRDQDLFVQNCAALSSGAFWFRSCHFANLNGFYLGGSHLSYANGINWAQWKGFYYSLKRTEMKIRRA

[2] = biological target: T2, human MFAP4 in tissue (human mammary artery) (human, UniProt P55083 22-255); experiment: immunohistochemistry on human mammary artery
T2 construct: Native protein detected by immunohistochemistry
T2 sequence (looked up): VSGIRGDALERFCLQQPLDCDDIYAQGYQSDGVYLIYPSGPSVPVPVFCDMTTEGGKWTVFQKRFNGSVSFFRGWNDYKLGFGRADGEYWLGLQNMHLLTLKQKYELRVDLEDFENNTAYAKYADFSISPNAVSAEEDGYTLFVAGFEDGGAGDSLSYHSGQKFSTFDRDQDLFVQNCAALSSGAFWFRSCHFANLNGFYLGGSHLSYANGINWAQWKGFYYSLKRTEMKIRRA

binding result [1]: binds
binding result [2]: binds
B1: HG-HYB 7-14 (antibody, V domains shown)
VH: EVKVVESGGGLVQPGGSLRLSCATSGFTFSDFYMEWVRQPPGKRLEWIAASRNKANDYTTEYSASVKGRFIVSRDTSQSILYLQLNALRAEDTAIYYCARNYYDSSYWYFDVWGAGTTVTVSS
VL: DIVLTQSPSYLAASPGETITINCRASKSISKYLAWYQERPGKTNKLLIYSGSTLQSGIPSRFSGSGSGTDFTLTISSLEPEDFAMYYCQQHNEYPFTFGAGTKLELK
notes: Monoclonal antibody raised in MFAP4-deficient C57BL/6N mice against rMFAP4; also called FITC-anti-MFAP4 (HG-HYB 7-14)
